Data: patent US7112333B1, “T cell epitopes of ryegrass pollen allergen” (Heska Corporation, priority 1994, dated 2006)
One block for each molecule: values may come before it.

Experiments:
[1] = tested on: Lol p V reactive T Cells; assay: T cell proliferation (tritiated thymidine) of Lol p V-primed T cell lines from grass-allergic patients; type: cell-based, human; conditions: one allergic patient; results not shown
From the text: As discussed in Example 2, human T cell stimulating activity can be tested by culturing T cells obtained from an individual sensitive to Lol p V allergen, (i.e., an individual who has an IgE mediated immune response to Lol p V allergen) with a peptide derived from the allergen and determining whether proliferation of T cells occurs in response to the peptide as measured, e.g., by cellular uptake of tritiated thymidine. Stimulation indices for responses by T cells to peptides can be calculated as the maximum CPM in response to a peptide divided by the control CPM. A stimulation index (S.I.) equal to or greater than two times the background level is considered “positive”. […]
In addition, preferred peptides have a positivity index (P.I.) of at least about 60, more preferably about 100, more preferably at least about 200 and most preferably at least about 300. The positivity index for a peptide is determined by multiplying the mean T cell stimulation index by the percent of individuals, in a population of individuals sensitive to ryegrass pollen (e.g., preferably a population of at least 15 individuals, more preferably a population of at least 30 individuals or more), who have a T cell stimulation index to such peptide of at least 2.0. […]
This amount of priming antigen was determined to be optimal for the activation of T cells from most grass-allergic patients. […]

[2] = tested on: human IgE; assay: Direct ELISA of human IgE binding to coated antigen
Experimental: (§1) To examine the importance of Lol p V, both direct and competition ELISA assays were performed. In the direct ELISA, 100 μl of 10 μg/ml of antigen in Phosphate Buffered Saline, pH 7.4 (PBS) was used to coat Immulon II (Dynatech, Chantilly, Va.) 96 well plates for 4 hours at room temperature (RT) or overnight (O/N) at 4° C. In between each step the plates were washed 3× with PBS-T. The excess coating antigen(s) was removed and the wells blocked with 300 μl/well 0.5% gelatin +1 mg/ml PVP in PBS for 1 hour at RT. Serially diluted patient plasma or the diluent PBS+0.05% Tween^−20 was incubated in at 100 μl/well in duplicate wells overnight at 4° C. […] Plates were read on a MR7000 plate reader (Dynatech, Chantilly, Va.) with a 450 nm filter. The absorbance levels of duplicate wells were averaged. The results were graphed as absorbance vs. dilution. […] The results are plotted as the absorbance vs. the log of the concentration of competing antigen.
For the direct ELISA, wells were coated with either soluble pollen extract (SPE) of ryegrass pollen or rLol p V (purified native Lol p V may have a small amount of Lol p I; use of recombinant material assures that the IgE binding is only to Lol p V) and human IgE antibody binding to these antigens was analyzed. […]

[3] = tested on: human basophil mediator release; assay: Histamine release assay on whole blood of a ryegrass allergic individual; type: cell-based; conditions: one ryegrass allergic individual; whole heparinized blood; 37° C., 30 minutes; FIG. 12
Experimental: A histamine release assay was performed on one ryegrass allergic individual, using Lol p SPE and rLol p V as the added antigens. This assay is a measure of IgE reactivity through human basophil mediator release, and it is based on the detection of an acylated derivative of histamine using a specific monoclonal antibody (Morel, A. M. and Delaage, M. A.; 1988, J. Allergy Clin. Immunol. 82: 646–654). The reagents for this radioimmunoassay are sold as a kit by Amac Inc. (Westbrook, Me.). Whole heparinized blood drawn from a grass allergic individual and then […] aliquots were mixed with an equal amount of the grass antigens SPE and rLol p V at various concentrations or the diluent, PACM buffer (25 mM PIPES, 100 mM NaCl, 5 mM KCL, 4 mM CaCl2, 1 mM MgCl2, 0.003% HSA, pH7.3) in 1.5 ml polypropylene. The release reactions were carried out at 37° C. for 30 minutes. After this incubation the samples were centrifuged at 1500 RPM for 3 minutes and the supernatants removed. For the total histamine release, 0.1 ml of blood was added to 0.9 ml of PACM buffer, vortexed, and then boiled for 3 minutes. The samples were spun at 13000 RPM and the supernatant removed for analysis. Duplicate samples were used to measure total release. All of the supernatants are diluted 1:4 in acylation buffer and the remainder of the assay is performed according to the manufacturer's instructions.

[4] = tested on: human IgE; assay: Competition ELISA for IgE binding to ryegrass pollen SPE; conditions: IgE source PHP-A or individual patient plasma; FIGS. 10 and 11
Experimental: as §1
In the competition assay, ELISA wells were coated with ryegrass pollen SPE and then allergic patient IgE binding was measured in the presence of competing ryegrass pollen SPE, purified native Lol p V, or rLol p V. The source of allergic IgE in this assay was PHP-A (FIG. 10) or individual patient plasma (FIG. 11). […]

[5] = tested on: specific IgE; conditions: immunoblotting; WO 93/04174, page 65; cited from earlier work

IgE binding in direct ELISA ([2]; IgE source PHP-A, PHP-B or four individual patients, FIGS. 6-9): high IgE binding | IgE binding in direct ELISA (reactivity to Lol p V peptides) ([2]; IgE source PHP-B, preliminary assay, FIG. 13a and 13b): very high IgE binding
B1: rLol p V: bacterially expressed recombinant Lol p V encoded by clone 12R, with His6 sequence (protein)
chain: MHHHHHHMAVQKYTVALFLAVALVAGPAASYAADAGYTPAAAATPATPAATPAAAGGKATTDEQKLLEDVNAGFKAAVAAAANAPPADKFKIFEAAFSESSKGLLATSAAKAPGLIPKLDTAYDVAYKAAEGATPEAKYDAFVTALTEALRVIAGALEVHAVKPATEEVPAAKIPTGELQIVDKIDAAFKIAATAANAAPTNDKFTVFESAFNKALNECTGGAYETYKFIPSLEAAVKQAYAATVAAAPEVKYAVFEAALTKAITAMTQAQKAGKPAAAAATGAATVATGAATAAAGAATAAAGGYKA
T cell proliferative response of one patient [1]: responds well | histamine release [3]: strong histamine release over a wide concentration range

B2: Lol p V: major ryegrass (Lolium perenne) pollen protein allergen (protein)
chain: B1 chain
competition for IgE binding to ryegrass pollen SPE [4]: significant portion of IgE against Lol p SPE is specific for Lol p V | ryegrass pollen sensitive patients possessing specific IgE antibody that bound [5]: 80%

B3: purified native Lol p V: Lol p V allergens affinity-purified from ryegrass pollen on mAb 1B9 column (protein)
chain: ADAGYTPAAAATPATPAATPAAAGGKATTDEQKLLEDVNAGFKAAVAAAANAPPADKFKIFEAAFSESSKGLLATSAAKAPGLIPKLDTAYDVAYKAAEGATPEAKYDAFVTALTEALRVIAGALEVHAVKPATEEVPAAKIPTGELQIVDKIDAAFKIAATAANAAPTNDKFTVFESAFNKALNECTGGAYETYKFIPSLEAAVKQAYAATVAAAPEVKYAVFEAALTKAITAMTQAQKAGKPAAAAATGAATVATGAATAAAGAATAAAGGYKA
modifications: non-natural residues
T cell proliferative response of one patient [1]: responds well
